Experimental data reported in PMC7016264, “Redox requirements for ubiquitin-like urmylation of Ahp1, a 2-Cys peroxiredoxin from yeast” (Redox Biology, 2020).

Biological target: the molecule itself
Assay: SEC-MALS; proteins reduced with 50 mM DTT, exchanged into 20 mM HEPES pH 7.5, 100 mM NaCl, 1 mM TCEP, diluted to 125 uM; dimer to monomers

B1: His-tagged Ahp1, wild-type (recombinant) (enzyme, S. cerevisiae, UniProt P38013 1-176, looked up)
chain: MSDLVNKKFPAGDYKFQYIAISQSDADSESCKMPQTVEWSKLISENKKVIITGAPAAFSPTCTVSHIPGYINYLDELVKEKEVDQVIVVTVDNPFANQAWAKSLGVKDTTHIKFASDPGCAFTKSIGFELAVGDGVYWSGRWAMVVENGIVTYAAKETNPGTDVTVSSVESVLAHL
notes: Ahp1, 2-Cys peroxiredoxin of Saccharomyces cerevisiae; The printed mass of the His-tagged monomer is ~23.3 kDa (dimer 46.7 kDa) against ~19 kDa for untagged Ahp1, so vector-derived residues are probably present; also called wild-type Ahp1; wt Ahp1; source: E. coli, purified (His-tagged)
  stoichiometry N: 2
